Measured values taken from paper PMC8876323, “Heat Shock Transcription Factor CgHSF1 Is Required for Melanin Biosynthesis, Appressorium Formation, and Pathogenicity in Colletotrichum gloeosporioides”.

T1: CgHSF1 (Colletotrichum gloeosporioides)
T1 chain: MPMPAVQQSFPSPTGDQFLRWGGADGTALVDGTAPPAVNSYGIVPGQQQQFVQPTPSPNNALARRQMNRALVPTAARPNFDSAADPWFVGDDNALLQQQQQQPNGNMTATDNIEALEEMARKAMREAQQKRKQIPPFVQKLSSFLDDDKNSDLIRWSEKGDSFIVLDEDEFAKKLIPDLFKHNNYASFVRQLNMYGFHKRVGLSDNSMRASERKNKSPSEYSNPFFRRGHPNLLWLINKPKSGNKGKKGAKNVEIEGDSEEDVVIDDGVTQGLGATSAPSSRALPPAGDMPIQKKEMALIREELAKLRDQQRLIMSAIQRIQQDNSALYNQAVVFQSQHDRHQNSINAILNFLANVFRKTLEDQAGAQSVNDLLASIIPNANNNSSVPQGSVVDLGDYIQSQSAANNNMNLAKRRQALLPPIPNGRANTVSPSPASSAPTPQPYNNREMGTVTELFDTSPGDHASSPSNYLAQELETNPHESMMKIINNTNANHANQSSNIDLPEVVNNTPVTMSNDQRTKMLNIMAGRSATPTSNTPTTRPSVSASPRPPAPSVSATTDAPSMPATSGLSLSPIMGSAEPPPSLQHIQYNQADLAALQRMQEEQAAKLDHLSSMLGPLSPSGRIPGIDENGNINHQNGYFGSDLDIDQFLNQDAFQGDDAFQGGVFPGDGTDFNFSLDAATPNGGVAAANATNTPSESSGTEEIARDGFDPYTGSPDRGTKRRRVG

B1: YG-probe (dsDNA)
DNA 1: TGTGGTGGTTTGAGAACATTCACTCAAAGCTCAC
DNA 2: GTGAGCTTTGAGTGAATGTTCTCAAACCACCACA
B2: T4HRa-probe (dsDNA)
DNA 1: CGAGTAAGGCACGCGAAGTTCAGGAGAGAGACCT
DNA 2: AGGTCTCTCTCCTGAACTTCGCGTGCCTTACTCG
B3: CMR1-probe (dsDNA)
DNA 1: CGTATCACTTGTTCGAATTTCTCACACATTCGGT
DNA 2: ACCGAATGTGTGAGAAATTCGAACAAGTGATACG

Molecular target: T1, CgHSF1
Assay: EMSA
Conditions: protein: recombinant; tags: His (Ni-NTA purified, pCOLD vector); blunt

Binder | binding result
B1 | binds
B2 | binds
B3 | binds
